The text below walks through data of patent US9915665.

Assay [1] deals with murine DLL4 (murine) (UniProt Q9JI71). Nature of the assay: Biacore (SPR), muDLL4; reference is the parental DVD. (In general: In SPR one partner is held on a chip, and binding of the other changes the refractive index at the surface.)
Assay [2] has the same target. Description: Biacore (SPR), DVD-Ig and muDLL4.
The target of assay [3] is human DLL4 (human) (UniProt Q9NR61). Description: Biacore (SPR), DVD-Ig and huDLL4.
Assay [4] has the same target. Description: Biacore (SPR), huDLL4; reference is the parental DVD.

The Kd is the constant that tells how readily two partners part at equilibrium. Higher therefore signals lower affinity. Usually koff stands for the rate constant with which the complex falls apart. Higher therefore signals a short-lived complex. A word on the kon: it is the second-order rate constant of association. A high value points to fast association.

Sequence of UniProt Q9NR61 (Q9NR61 27-524 limits assumed): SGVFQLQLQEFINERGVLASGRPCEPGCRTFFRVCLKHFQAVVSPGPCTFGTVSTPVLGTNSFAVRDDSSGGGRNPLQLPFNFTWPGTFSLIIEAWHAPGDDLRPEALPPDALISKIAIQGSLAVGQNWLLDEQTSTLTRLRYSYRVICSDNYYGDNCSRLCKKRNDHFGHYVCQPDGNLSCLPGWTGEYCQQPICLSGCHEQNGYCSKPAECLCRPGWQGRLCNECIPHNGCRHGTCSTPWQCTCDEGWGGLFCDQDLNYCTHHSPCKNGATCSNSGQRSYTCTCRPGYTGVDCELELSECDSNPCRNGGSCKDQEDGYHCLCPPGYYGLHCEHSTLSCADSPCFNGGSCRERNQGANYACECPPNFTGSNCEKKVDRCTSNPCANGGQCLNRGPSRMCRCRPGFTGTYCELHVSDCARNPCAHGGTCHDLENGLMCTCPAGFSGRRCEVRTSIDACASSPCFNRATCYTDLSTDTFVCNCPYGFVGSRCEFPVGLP
Sequence of UniProt Q9JI71 (Q9JI71 27-525 limits assumed): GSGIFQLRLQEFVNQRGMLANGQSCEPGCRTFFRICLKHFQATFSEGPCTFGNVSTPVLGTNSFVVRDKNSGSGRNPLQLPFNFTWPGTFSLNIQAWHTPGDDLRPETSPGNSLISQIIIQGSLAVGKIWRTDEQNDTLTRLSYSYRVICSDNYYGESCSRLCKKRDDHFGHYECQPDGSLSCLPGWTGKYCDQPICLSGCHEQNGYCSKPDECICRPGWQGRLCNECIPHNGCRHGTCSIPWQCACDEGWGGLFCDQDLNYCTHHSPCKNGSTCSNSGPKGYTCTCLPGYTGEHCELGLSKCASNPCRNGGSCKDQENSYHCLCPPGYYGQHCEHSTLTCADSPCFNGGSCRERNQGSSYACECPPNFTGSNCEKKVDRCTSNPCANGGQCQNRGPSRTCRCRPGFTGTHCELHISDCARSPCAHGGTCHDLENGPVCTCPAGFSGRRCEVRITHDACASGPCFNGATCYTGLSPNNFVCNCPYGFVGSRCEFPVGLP

B1: h1A11.1-A10-S3-SS-Anti-VEGF DVD-Ig (bispecific antibody, part only; not given: anti-VEGF domains, h1A11.1 VL, constant regions, part only)
heavy, part: EVQLVESGGGLVQPGGSLRLSCAASGFTFRHFPMAWVRQAPGKGLEWVASISSSDGTSNYRDSVKGRFTISRDNAKSSLYLQMNSLRAEDTAVYYCARGYYNSPFAYWGQGTLVTVSSASTKGP
light, part: TVAAP
In the case of B1, in the assay with murine DLL4 (murine) [1], the KD ratio (parental DVD/AM DVD) was determined as 53.8 fold. In the assay with murine DLL4 (murine) [2], this molecule yielded a dissociation constant (Kd) of 0.774 nM, a koff of 0.000133 s⁻¹ and an on-rate (kon) of 171000 M⁻¹ s⁻¹.

B2: h1A11.1-G7-S2-SS-Anti-VEGF DVD-Ig (bispecific antibody, part only; not given: anti-VEGF domains, h1A11.1 VL, constant regions, part only)
heavy, part: EVQLVESGGGLVQPGGSLRLSCAASGFTFNHFPMAWVRQAPGKGLEWVATISSSDWTPYYRDSVKGRFTISRDNAKNSLYLQMNSLRAEDTAVYYCARGYYNSPFAYWGQGTLVTVSSASTKGP
light, part: TVAAP
B2: in the assay with murine DLL4 (murine) [1], the KD ratio (parental DVD/AM DVD) was 13.6 fold. In the assay with human DLL4 (human) [3], the Kd amounted to 1.32 nM, the off-rate (koff) was determined as 0.000155 s⁻¹ and the association rate constant (kon) was found to be 117000 M⁻¹ s⁻¹. Moreover, in the assay with human DLL4 (human) [4], the KD ratio (parental DVD/AM DVD) turned out to be 15.2 fold. In the assay with murine DLL4 (murine) [2], this molecule yielded a Kd of 1.57 nM, a koff of 0.000266 s⁻¹ and a kon of 169000 M⁻¹ s⁻¹.

B3: h1A11.1-B9-S2-SS-Anti-VEGF DVD-Ig (bispecific antibody, part only; not given: anti-VEGF domains, h1A11.1 VL, constant regions, part only)
heavy, part: EVQLVESGGGLVQPGGSLRLSCAASGFTFSHFPMAWVRQAPGKGLEWVASISSSDSTTNYRDSVKGRFTISRDNAKNSLYLQMNSLRAEDTAVYYCARGYYNSPFAYWGQGTLVTVSSASTKGP
light, part: TVAAP
In the case of B3, the KD ratio (parental DVD/AM DVD) with murine DLL4 (murine) [1] is 17.4 fold. In the assay with human DLL4 (human) [3], this molecule displayed a Kd of 0.923 nM, an off-rate (koff) of 0.000106 s⁻¹ and an association rate constant (kon) of 115000 M⁻¹ s⁻¹. In addition, the KD ratio (parental DVD/AM DVD) with human DLL4 (human) [4] came out at 21.6 fold. In the assay with murine DLL4 (murine) [2], this molecule displayed a Kd of 1.23 nM, a koff of 0.000205 s⁻¹ and an on-rate (kon) of 167000 M⁻¹ s⁻¹.

B4: h1A11.1-F7-S2-SS-Anti-VEGF DVD-Ig (bispecific antibody, part only; not given: anti-VEGF domains, h1A11.1 VL, constant regions, part only)
heavy, part: EVQLVESGGGLVQPGGSLRLSCAASGFTFRHFPMTWVRQAPGKGLEWVASISSSDGTINYRDSVKGRFTISRDNAKNSLYLQMNSLRAEDTAVYYCARGYYNSPFAYWGQGTLVTVSSASTKGP
light, part: TVAAP
On to B4, for which the values for the KD ratio (parental DVD/AM DVD) with murine DLL4 (murine) [1] and in the assay with human DLL4 (human) [4] were 59.2 fold and 35.9 fold, respectively. Further, the figures for the Kd with human DLL4 (human) [3] and with murine DLL4 (murine) [2] were 0.556 nM and 0.361 nM, respectively. Further, the koff in the assay with human DLL4 (human) [3] was 0.000319 s⁻¹; with murine DLL4 (murine) [2], 0.000483 s⁻¹. For the same molecule, the values for the on-rate (kon) with human DLL4 (human) [3] and with murine DLL4 (murine) [2] were 570000 M⁻¹ s⁻¹ and 1.34e+06 M⁻¹ s⁻¹, respectively.

B5: h1A11.1-H3-S2-SS-Anti-VEGF DVD-Ig (bispecific antibody, part only; not given: anti-VEGF domains, h1A11.1 VL, constant regions, part only)
heavy, part: EVQLVESGGGLVQPGGSLRLSCAASGFTFRNFPMAWVRQAPGKGLEWVASISSSDGTTNYRDSVKGRFTISRDNAKSSLYLQMNSLRAEDTAVYYCARGYYNSPFAYWGQGTLVTVSSASTKGP
light, part: TVAAP
Turning to B5, the KD ratio (parental DVD/AM DVD) with murine DLL4 (murine) [1] amounted to 14.3 fold. In the assay with human DLL4 (human) [3], the Kd turned out to be 1.04 nM, the koff stood at 0.000136 s⁻¹ and the kon worked out at 130000 M⁻¹ s⁻¹. For the same molecule, in the assay with human DLL4 (human) [4], the KD ratio (parental DVD/AM DVD) was 19.1 fold. Besides, in the assay with murine DLL4 (murine) [2], the Kd is 1.49 nM, the koff stood at 0.000294 s⁻¹ and the association rate constant (kon) was 197000 M⁻¹ s⁻¹.

B6: h1A11.1-A04-S3-SS-Anti-VEGF DVD-Ig (bispecific antibody, part only; not given: anti-VEGF domains, h1A11.1 VL, constant regions, part only)
heavy, part: EVQLVESGGGLVQPGGSLRLSCAASGFTFRHFPMAWVRQAPGKGLEWVATISSSDGATYYRDSVKGRFTISRDNAKSSLYLQMNSLRAEDTAVYYCARGYYNSPFAYWGQGTLVTVSSASTKGP
light, part: TVAAP
Take B6: the KD ratio (parental DVD/AM DVD) with murine DLL4 (murine) [1] is 92.2 fold. In the assay with murine DLL4 (murine) [2], this molecule yielded a Kd of 0.451 nM, a koff of 8.12e-05 s⁻¹ and an on-rate constant (kon) of 180000 M⁻¹ s⁻¹.
